Data on 10 molecules can be found in patent publication CN1930187A.

Numbering of substitutions follows the chain as printed.

T1: Pep-3, NH2-…-OH (MW 1590 Da) (human)
T1 sequence (peptide): LEEKKGNYVVTDHG

B1: SC-EGFRvIII-XG1-139 (antibody, human IgG1, V domains shown)
VH: EVQVLESGGGLVQPGGSLRLSCAASGFTFSSYAMSWVRQAPGKGLEWVSAISGSGGSTNYADSVKGRFTISRDNSKNTLYLQMNSLRAEDTAVYYCAGSSGWSEYWGQGTLVTVSS
VL: DIQMTQSPSSLSASVGDRVTITCRASQGIRNNLAWYQQKPGKAPKRLIYAASNLQSGVPSRFTGSGSGTEFTLIVSSLQPEDFATYYCLQHHSYPLTSGGGTKVEIK
B2: AB-EGFRvIII-XG1-095 (antibody, human IgG1, V domains shown)
VH: QVQLQESGPFLVKPSQTLSLTCTVSGGSISSGGYYWSWIRQHPGKGLEWIGFIYYRGNTYYNPSLKSRVTISVDTSKNQFSLKLSSVTAADTAVYYCARDGYCSRTGCYGGWFDPWGQGTLVTVSP
VL: DIVMTQTPLSSPVTLGQPASISCRSSQSLIHTDGNIYLSWLQQRPGQPPRLLIYKISNRFSGVPDRFSGSGAGTDFTLKISRVEAEDVGVYYCMQGTQFPITFGQGTRLEIK
B3: SC-EGFRvIII-XG1-250 (antibody, human IgG1, V domains shown)
VH: B1 VH with V2G, V4L, L11W, G16E, M83V, A88V
VL: DIQMTQSPSSLSASVGDSVTITCRTSQGIRKNLGWYQQKPGKAPKRLIYAASSLQSGVPSRFSGSGSGTEFTLTISRLQPEDFATYYCLQHHSYPLTFGGGTRVEIR
B4: SC-EGFRvIII-XG2-170 (antibody, human IgG1, V domains shown)
VH: QVQLQQSGPGLVKPSQTLSLTCAISGDSVSSNNAAWNWIRQSPARGLEWLGRTYYRSKWYNDYVVSVKSRITINPDTSKNQFSLQLNSVTPEDTAVYYCVRATAFDYWGQGTLVTVSS
VL: AIVLTQTPLSSPVTLGQPASISCRSSQSLVHRDGNTYLSWLQQRPGQPPRLLIYKISNRFSGVPDRFSGSGAGTDFTLKISRVEPDDVGVYYCMHTTQLPWTFGQGTKVEIK
B5: SC-EGFRvIII-XG2-150 (antibody, human IgG1, V domains shown)
VH: QVQLQQSGPGLVKPSQTLSLTCAISGDSVSSYSSAWNWIRQSPSRGLEWLGRAYHRSRWYYEYAVSVKSRINITPDTSKNQFSLQLNSVTPEDTAVYYCARGSRFDYWGQGTLVTVSS
VL: B4 VL with A1D, L4M, P85A, D86E, V90I, Y92F, L99F, K108R
B6: SC-EGFRvIII-XG1-123/124 (antibody, human IgG1, V domains shown)
VH: QVQLVESGGGVVQPGRSLRLSCAASGFTLSSYGMHWVRQAPGKGLEWVAVMSYDGSKEDYADSVKGRFTISRDNSENTLYLQMNSLRAEDTAVYYCVSEGYCSSRSCYKYYYYGMDVWGQGTTVTVSS
VL: DIVMTQSPLSLPVTPGEPASISCRSSQSLLYRNGNNYLDWYLQKPGQSPQLLIYLGSNRASGVPDRFSGSGSGTDFTLNISRVEAEDVGHYYCMQALQTPRTFGQGTKVEIK
B7: SC-EGFRvIII-XG1-342 (antibody, human IgG1, V domains shown)
VH: B6 VH with A23V, M51T, E58K, E76K, S103D, R105T
VL: B6 VL with K44R, N79K, H90V
B8: SC-EGFRvIII-XG1-333 (antibody, human IgG1, V domains shown)
VH: B6 VH with A23V, P41L, M51T, E58K, E76K, S103D, R105T
VL: B6 VL with K44R, N79K, H90V
B9: SC-EGFRvIII-XG1-211 (antibody, human IgG1, V domains shown)
VH: B6 VH with A23V, M51T, E58K, V64A, E76K, R105S
VL: B6 VL with K44R, N79K, H90V
B10: SC-EGFRvIII-XG1-318 (antibody, human IgG1, V domains shown)
VH: B6 VH with A23V, M51T, E58K, E76K, S103D, R105S
VL: B6 VL with K44R, N79K, H90V

One experiment deals with T1, Pep-3, NH2-…-OH (MW 1590 Da) (human). The experiment is described as follows: SPR (Biacore 2000), mAb immobilised, pep-3 injected, 1:1 model.
Consider B1, for which the koff was determined as 0.00298 s⁻¹ and the kon amounted to 10300 M⁻¹ s⁻¹.
On the same counts, the results for B2 are 0.00993 s⁻¹ and 149000 M⁻¹ s⁻¹.

The next experiment shares this target. The experiment can be described thus: SPR (Biacore 2000), mAb immobilised, pep-3 injected.
As for B1, the Kd amounted to 0.29 µM, the koff came out at 0.00298 s⁻¹ and the kon stood at 10300 M⁻¹ s⁻¹.
Molecule B2 displayed a Kd of 0.066 µM, a koff of 0.0099 s⁻¹ and a kon of 149000 M⁻¹ s⁻¹.

In another experiment the target is EGFRvIII-rabbit Fc fusion protein (EGFRvIII-RbFc) (human; rabbit) (UniProt P00533). The experiment is described as follows: ELISA, transfection supernatant titrated on EGFRvIII-Rab Ig Fc coat.
For the molecule B3, the titre, antigen binding (抗原结合) (titre (1:x dilution)) was more than 64.
Still for that read-out and setting: for B1 the value was more than 64.
The same measure, in the same setting: for B4 the value was more than 64; for B5, more than 64; for B6, more than 64.
In turn, B7 registered a titre, antigen binding (抗原结合) (titre (1:x dilution)) of more than 64.
Still for that read-out and setting: the figure for B8 is more than 64; for B9 it is more than 64.
In turn, B10 came in with a titre, antigen binding (抗原结合) (titre (1:x dilution)) of 64.
